From publication PMC4157582

Biological target: TAP-Mud13p (S. cerevisiae) (UniProt Q08920)
Assay: pull-down

Chain of UniProt Q08920 (Q08920 whole entry): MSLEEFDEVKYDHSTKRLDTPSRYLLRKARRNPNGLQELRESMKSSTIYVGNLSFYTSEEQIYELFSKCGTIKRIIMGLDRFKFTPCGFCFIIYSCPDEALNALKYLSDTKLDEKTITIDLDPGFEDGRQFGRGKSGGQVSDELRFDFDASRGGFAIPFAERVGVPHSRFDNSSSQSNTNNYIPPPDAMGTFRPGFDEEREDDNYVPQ

percent reduction of the interaction efficiency against wild-type Tif4631p: > 30%
B1: Tif4631p Δ491-501 (natural protein)
chain: MTDETAHPTQSASKQESAALKQTGDDQQESQQQRGYTNYNNGSNYTQKKPYNSNRPHQQRGGKFGPNRYNNRGNYNGGGSFRGGHMGANSSNVPWTGYYNNYPVYYQPQQMAAAGSAPANPIPVEEKSPVPTKIEITTKSGEHLDLKEQHKAKLQSQERSTVSPQPESKLKETSDSTSTSTPTPTPSTNDSKASSEENISEAEKTRRNFIEQVKLRKAALEKKRKEQLEGSSGNNNIPMKTTPENVEEKGSDKPEVTEKTKPAEEKSAEPEVKQETPAEEGEQGEKGQIKEESTPKVLTFAERLKLKKQQKEREEKTEGKENKEVPVQEETKSAIESAPVPPSEQVKEETEVAETEQSNIDESATTPAIPTKSDEAEAEVEAEAGDAGTKIGLEAEIETTTDETDDGTNTVSHILNVLKDATPIEDVFSFNYPEGIEGPDIKYKKEHVKYTYGPTFLLQFKDKLNVKADAEWVQSTASKIVIPPGMGRGNSSRGHDFRNTSVRNMDDRANSRTSSKRRSKRMNDDRRSNRSYTSRRDRERGSYRNEEKREDDKPKEEVAPLVPSANRWVPKFKSKKTEKKLAPDGKTELLDKDEVERKMKSLLNKLTLEMFDAISSEILAIANISVWETNGETLKAVIEQIFLKACDEPHWSSMYAQLCGKVVKELNPDITDETNEGKTGPKLVLHYLVARCHAEFDKGWTDKLPTNEDGTPLEPEMMSEEYYAAASAKRRGLGLVRFIGFLYRLNLLTGKMMFECFRRLMKDLTDSPSEETLESVVELLNTVGEQFETDSFRTGQATLEGSQLLDSLFGILDNIIQTAKISSRIKFKLIDIKELRHDKNWNSDKKDNGPKTIQQIHEEEERQRQLKNNSRSNSRRTNNSSNRHSFRRDAPPASKDSFITTRTYSQRNSQRAPPPKEEPAAPTSTATNMFSALMGESDDEE
modifications: 35S-labelled
